Patent US20200079833A1 (AstraZeneca / MedImmune, published 2020)
Starred links: 1 amine or outer side, 2 acyl side, 3 side chain; linkers in the order of their positions; H or OH if unused. Non-standard residues stand in square brackets, D forms with d. Groups on a side chain read outwards from the residue. No end group written: not given here. *: point of attachment. γGlu = O=C(O)[C@H](CCC(=O)[*:2])N[*:1]; Palmitoyl = CCCCCCCCCCCCCCCC(=O)*; αMeF = C[C@](N)(Cc1ccccc1)C(=O)O; αMeK = C[C@](N)(CCCCN)C(=O)O; αMeS = C[C@](N)(CO)C(=O)O; Aib = CC(C)(N)C(=O)O

T1: glucose-dependent insulinotropic peptide (gastric inhibitory polypeptide) receptor (GIPR) (human, UniProt P48546 22-466)
T1 sequence (looked up): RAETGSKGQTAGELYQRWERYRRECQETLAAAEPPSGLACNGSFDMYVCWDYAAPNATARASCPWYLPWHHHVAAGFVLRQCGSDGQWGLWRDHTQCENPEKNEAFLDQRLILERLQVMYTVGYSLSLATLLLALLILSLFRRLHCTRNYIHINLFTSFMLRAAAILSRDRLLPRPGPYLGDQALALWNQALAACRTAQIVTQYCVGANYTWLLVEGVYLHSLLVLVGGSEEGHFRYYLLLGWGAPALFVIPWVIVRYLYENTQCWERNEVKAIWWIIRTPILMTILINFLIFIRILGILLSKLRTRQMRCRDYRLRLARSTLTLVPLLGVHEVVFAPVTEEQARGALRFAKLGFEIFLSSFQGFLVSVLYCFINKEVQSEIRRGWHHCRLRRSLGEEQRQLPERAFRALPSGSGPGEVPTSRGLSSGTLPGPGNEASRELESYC

B1: SEQ ID NO 78 (peptide)
peptide: H[Aib]EGS[αMeF]TSDV[αMeS]S[αMeF]LEGEAA[αMeK]EK([γGlu-Palmitoyl])IA[αMeF]VV[αMeK]GG-NH2
modifications: N-terminus assumed
SMILES: CCCCCCCCCCCCCCCC(=O)N[C@@H](CCC(=O)NCCCC[C@H](NC(=O)[C@H](CCC(=O)O)NC(=O)[C@](C)(CCCCN)NC(=O)[C@H](C)NC(=O)[C@H](C)NC(=O)[C@H](CCC(=O)O)NC(=O)CNC(=O)[C@H](CCC(=O)O)NC(=O)[C@H](CC(C)C)NC(=O)[C@](C)(Cc1ccccc1)NC(=O)[C@H](CO)NC(=O)[C@](C)(CO)NC(=O)[C@@H](NC(=O)[C@H](CC(=O)O)NC(=O)[C@H](CO)NC(=O)[C@@H](NC(=O)[C@](C)(Cc1ccccc1)NC(=O)[C@H](CO)NC(=O)CNC(=O)[C@H](CCC(=O)O)NC(=O)C(C)(C)NC(=O)[C@@H](N)Cc1c[nH]cn1)[C@@H](C)O)C(C)C)C(=O)N[C@H](C(=O)N[C@@H](C)C(=O)N[C@@](C)(Cc1ccccc1)C(=O)N[C@H](C(=O)N[C@H](C(=O)N[C@@](C)(CCCCN)C(=O)NCC(=O)NCC(N)=O)C(C)C)C(C)C)[C@@H](C)CC)C(=O)O
B2: SEQ ID NO 79 (peptide)
peptide: H[Aib]EGS[αMeF]TSDV[αMeS]S[αMeF]LEGEAA[αMeK]K([γGlu-Palmitoyl])[αMeF]IA[αMeF]VV[αMeK]GG-NH2
modifications: N-terminus assumed
SMILES: CCCCCCCCCCCCCCCC(=O)N[C@@H](CCC(=O)NCCCC[C@H](NC(=O)[C@](C)(CCCCN)NC(=O)[C@H](C)NC(=O)[C@H](C)NC(=O)[C@H](CCC(=O)O)NC(=O)CNC(=O)[C@H](CCC(=O)O)NC(=O)[C@H](CC(C)C)NC(=O)[C@](C)(Cc1ccccc1)NC(=O)[C@H](CO)NC(=O)[C@](C)(CO)NC(=O)[C@@H](NC(=O)[C@H](CC(=O)O)NC(=O)[C@H](CO)NC(=O)[C@@H](NC(=O)[C@](C)(Cc1ccccc1)NC(=O)[C@H](CO)NC(=O)CNC(=O)[C@H](CCC(=O)O)NC(=O)C(C)(C)NC(=O)[C@@H](N)Cc1c[nH]cn1)[C@@H](C)O)C(C)C)C(=O)N[C@@](C)(Cc1ccccc1)C(=O)N[C@H](C(=O)N[C@@H](C)C(=O)N[C@@](C)(Cc1ccccc1)C(=O)N[C@H](C(=O)N[C@H](C(=O)N[C@@](C)(CCCCN)C(=O)NCC(=O)NCC(N)=O)C(C)C)C(C)C)[C@@H](C)CC)C(=O)O
B3: SEQ ID NO 80 (peptide)
peptide: H[Aib]EGS[αMeF]TSDV[αMeS]S[αMeF]LEGEAAK([γGlu-Palmitoyl])E[αMeF]IA[αMeF]VV[αMeK]GG-NH2
modifications: N-terminus assumed
SMILES: CCCCCCCCCCCCCCCC(=O)N[C@@H](CCC(=O)NCCCC[C@H](NC(=O)[C@H](C)NC(=O)[C@H](C)NC(=O)[C@H](CCC(=O)O)NC(=O)CNC(=O)[C@H](CCC(=O)O)NC(=O)[C@H](CC(C)C)NC(=O)[C@](C)(Cc1ccccc1)NC(=O)[C@H](CO)NC(=O)[C@](C)(CO)NC(=O)[C@@H](NC(=O)[C@H](CC(=O)O)NC(=O)[C@H](CO)NC(=O)[C@@H](NC(=O)[C@](C)(Cc1ccccc1)NC(=O)[C@H](CO)NC(=O)CNC(=O)[C@H](CCC(=O)O)NC(=O)C(C)(C)NC(=O)[C@@H](N)Cc1c[nH]cn1)[C@@H](C)O)C(C)C)C(=O)N[C@@H](CCC(=O)O)C(=O)N[C@@](C)(Cc1ccccc1)C(=O)N[C@H](C(=O)N[C@@H](C)C(=O)N[C@@](C)(Cc1ccccc1)C(=O)N[C@H](C(=O)N[C@H](C(=O)N[C@@](C)(CCCCN)C(=O)NCC(=O)NCC(N)=O)C(C)C)C(C)C)[C@@H](C)CC)C(=O)O
B4: SEQ ID NO 81 (peptide)
peptide: H[Aib]EGS[αMeF]TSDV[αMeS]S[αMeF]LEGEAK([γGlu-Palmitoyl])[αMeK]E[αMeF]IA[αMeF]VV[αMeK]GG-NH2
modifications: N-terminus assumed
SMILES: CCCCCCCCCCCCCCCC(=O)N[C@@H](CCC(=O)NCCCC[C@H](NC(=O)[C@H](C)NC(=O)[C@H](CCC(=O)O)NC(=O)CNC(=O)[C@H](CCC(=O)O)NC(=O)[C@H](CC(C)C)NC(=O)[C@](C)(Cc1ccccc1)NC(=O)[C@H](CO)NC(=O)[C@](C)(CO)NC(=O)[C@@H](NC(=O)[C@H](CC(=O)O)NC(=O)[C@H](CO)NC(=O)[C@@H](NC(=O)[C@](C)(Cc1ccccc1)NC(=O)[C@H](CO)NC(=O)CNC(=O)[C@H](CCC(=O)O)NC(=O)C(C)(C)NC(=O)[C@@H](N)Cc1c[nH]cn1)[C@@H](C)O)C(C)C)C(=O)N[C@@](C)(CCCCN)C(=O)N[C@@H](CCC(=O)O)C(=O)N[C@@](C)(Cc1ccccc1)C(=O)N[C@H](C(=O)N[C@@H](C)C(=O)N[C@@](C)(Cc1ccccc1)C(=O)N[C@H](C(=O)N[C@H](C(=O)N[C@@](C)(CCCCN)C(=O)NCC(=O)NCC(N)=O)C(C)C)C(C)C)[C@@H](C)CC)C(=O)O
B5: SEQ ID NO 82 (peptide)
peptide: H[Aib]EGS[αMeF]TSDV[αMeS]S[αMeF]LEGEK([γGlu-Palmitoyl])A[αMeK]E[αMeF]IA[αMeF]VV[αMeK]GG-NH2
modifications: N-terminus assumed
SMILES: CCCCCCCCCCCCCCCC(=O)N[C@@H](CCC(=O)NCCCC[C@H](NC(=O)[C@H](CCC(=O)O)NC(=O)CNC(=O)[C@H](CCC(=O)O)NC(=O)[C@H](CC(C)C)NC(=O)[C@](C)(Cc1ccccc1)NC(=O)[C@H](CO)NC(=O)[C@](C)(CO)NC(=O)[C@@H](NC(=O)[C@H](CC(=O)O)NC(=O)[C@H](CO)NC(=O)[C@@H](NC(=O)[C@](C)(Cc1ccccc1)NC(=O)[C@H](CO)NC(=O)CNC(=O)[C@H](CCC(=O)O)NC(=O)C(C)(C)NC(=O)[C@@H](N)Cc1c[nH]cn1)[C@@H](C)O)C(C)C)C(=O)N[C@@H](C)C(=O)N[C@@](C)(CCCCN)C(=O)N[C@@H](CCC(=O)O)C(=O)N[C@@](C)(Cc1ccccc1)C(=O)N[C@H](C(=O)N[C@@H](C)C(=O)N[C@@](C)(Cc1ccccc1)C(=O)N[C@H](C(=O)N[C@H](C(=O)N[C@@](C)(CCCCN)C(=O)NCC(=O)NCC(N)=O)C(C)C)C(C)C)[C@@H](C)CC)C(=O)O
B6: SEQ ID NO 83 (peptide)
peptide: H[Aib]EGS[αMeF]TSDV[αMeS]S[αMeF]LEGK([γGlu-Palmitoyl])AA[αMeK]E[αMeF]IA[αMeF]VV[αMeK]GG-NH2
modifications: N-terminus assumed
SMILES: CCCCCCCCCCCCCCCC(=O)N[C@@H](CCC(=O)NCCCC[C@H](NC(=O)CNC(=O)[C@H](CCC(=O)O)NC(=O)[C@H](CC(C)C)NC(=O)[C@](C)(Cc1ccccc1)NC(=O)[C@H](CO)NC(=O)[C@](C)(CO)NC(=O)[C@@H](NC(=O)[C@H](CC(=O)O)NC(=O)[C@H](CO)NC(=O)[C@@H](NC(=O)[C@](C)(Cc1ccccc1)NC(=O)[C@H](CO)NC(=O)CNC(=O)[C@H](CCC(=O)O)NC(=O)C(C)(C)NC(=O)[C@@H](N)Cc1c[nH]cn1)[C@@H](C)O)C(C)C)C(=O)N[C@@H](C)C(=O)N[C@@H](C)C(=O)N[C@@](C)(CCCCN)C(=O)N[C@@H](CCC(=O)O)C(=O)N[C@@](C)(Cc1ccccc1)C(=O)N[C@H](C(=O)N[C@@H](C)C(=O)N[C@@](C)(Cc1ccccc1)C(=O)N[C@H](C(=O)N[C@H](C(=O)N[C@@](C)(CCCCN)C(=O)NCC(=O)NCC(N)=O)C(C)C)C(C)C)[C@@H](C)CC)C(=O)O

molecular target: GLP-1 receptor (GLP-1R) (human, UniProt P43220 24-463); test: cell-based or functional assay

| cAMP Mean pM GLP-1R | cAMP Primary assay EC50 GLP-1R n1 | cAMP Primary assay EC50 GLP-1R n2 | Binder |
| --- | --- | --- | --- |
| 14 pM | 0.018 nM | 0.0093 nM | B1 |
| 3.1 pM | 0.0039 nM | 0.0023 nM | B2 |
| 24 pM | 0.031 nM | 0.017 nM | B3 |
| 283 pM | 0.37 nM | 0.2 nM | B4 |
| 2.5 pM | 0.003 nM | 0.002 nM | B5 |
| 3.6 pM | 0.0032 nM | 0.004 nM | B6 |

molecular target: glucagon receptor (GCGR) (human, UniProt P47871 26-477); test: cell-based or functional assay
Sequence (P47871 26-477): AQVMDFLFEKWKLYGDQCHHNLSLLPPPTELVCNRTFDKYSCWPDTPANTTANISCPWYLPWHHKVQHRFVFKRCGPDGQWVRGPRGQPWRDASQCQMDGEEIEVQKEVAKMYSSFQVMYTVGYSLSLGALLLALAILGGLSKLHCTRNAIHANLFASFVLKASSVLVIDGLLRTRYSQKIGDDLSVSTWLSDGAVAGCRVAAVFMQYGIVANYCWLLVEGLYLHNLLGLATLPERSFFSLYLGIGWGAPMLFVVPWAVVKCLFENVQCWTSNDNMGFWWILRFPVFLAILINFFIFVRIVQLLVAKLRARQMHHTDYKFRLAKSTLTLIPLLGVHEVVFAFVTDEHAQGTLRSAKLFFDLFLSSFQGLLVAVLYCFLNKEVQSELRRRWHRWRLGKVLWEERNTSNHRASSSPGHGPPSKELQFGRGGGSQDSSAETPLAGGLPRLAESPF

| cAMP Primary assay EC50 Gluc-R | cAMP Primary assay EC50 Gluc-R (2nd) | Binder |
| --- | --- | --- |
| 28 nM | 28 nM | B1 |
| 28 nM | 28 nM | B2 |
| 28 nM | 28 nM | B3 |
| 27 nM | 27 nM | B4 |
| 27 nM | 27 nM | B5 |
| 28 nM | 28 nM | B6 |

molecular target: T1, glucose-dependent insulinotropic …; test: cell-based or functional assay

| cAMP Primary assay EC50 GIP-R | cAMP Primary assay EC50 GIP-R (2nd) | Binder |
| --- | --- | --- |
| 28 nM | 28 nM | B1 |
| 28 nM | 28 nM | B2 |
| 28 nM | 28 nM | B3 |
| 27 nM | 27 nM | B4 |
| 27 nM | 27 nM | B5 |
| 28 nM | 28 nM | B6 |
